In article PMC9482650, “Quantitative fragmentomics allow affinity mapping of interactomes” (Nature Communications, 2022):

Columns and labels:
Assay in all cases: holdup assay
Parameters in all cases: key: below the threshold = too weak to quantify, mostly under pKd 3.1 to 4
[1] = biological target: MAGI2_4, Q86UL8
[2] = biological target: T1, ARHGAP21, Q5T5U3
T1 sequence (Q5T5U3 45-169, limits assumed, looked up): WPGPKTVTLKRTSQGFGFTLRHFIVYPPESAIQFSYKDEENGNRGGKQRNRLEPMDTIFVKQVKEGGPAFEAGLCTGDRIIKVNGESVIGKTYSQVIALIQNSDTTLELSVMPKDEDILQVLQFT

[3] = biological target: IL16_1, Q14005
[4] = biological target: AHNAK1, Q09666
[5] = biological target: T2, RAPGEF6, Q8TEU7
T2 sequence (Q8TEU7 525-625, limits assumed, looked up): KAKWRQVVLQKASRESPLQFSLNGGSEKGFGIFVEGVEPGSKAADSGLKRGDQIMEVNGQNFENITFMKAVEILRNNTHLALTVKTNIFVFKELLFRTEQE

[6] = biological target: T3, MPDZ_10, O75970
T3 sequence (O75970 1624-1722, limits assumed, looked up): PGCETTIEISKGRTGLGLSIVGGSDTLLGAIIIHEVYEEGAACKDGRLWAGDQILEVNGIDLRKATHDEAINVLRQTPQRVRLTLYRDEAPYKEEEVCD

[7] = biological target: DLG1_3, Q12959
[8] = biological target: FRMPD2_2, Q68DX3
[9] = biological target: NHERF4_2, Q86UT5
[10] = biological target: LNX1_1, Q8TBB1
[11] = biological target: T4, RADIL, Q96JH8
T4 sequence (Q96JH8 971-1071, limits assumed, looked up): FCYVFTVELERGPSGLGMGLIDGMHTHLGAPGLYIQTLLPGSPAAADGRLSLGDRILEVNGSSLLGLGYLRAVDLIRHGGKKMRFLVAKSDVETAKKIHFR

[12] = biological target: NHERF4_1, Q86UT5-2
[13] = biological target: GRASP, Q7Z6J2
[14] = biological target: LAP2, Q96RT1
[15] = biological target: T5, APBA1_1, Q02410
T5 sequence (Q02410 651-752, limits assumed, looked up): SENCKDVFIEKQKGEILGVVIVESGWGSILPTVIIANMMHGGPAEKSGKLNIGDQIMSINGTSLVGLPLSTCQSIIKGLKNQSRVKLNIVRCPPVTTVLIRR

[16] = biological target: T6, SHANK1, Q9Y566
T6 sequence (Q9Y566 658-767, limits assumed, looked up): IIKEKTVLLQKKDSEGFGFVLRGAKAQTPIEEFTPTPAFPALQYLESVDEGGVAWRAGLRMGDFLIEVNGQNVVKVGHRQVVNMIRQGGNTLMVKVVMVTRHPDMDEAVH

[17] = biological target: T7, PARD3B_1, Q8TEW8
T7 sequence (Q8TEW8 196-299, limits assumed, looked up): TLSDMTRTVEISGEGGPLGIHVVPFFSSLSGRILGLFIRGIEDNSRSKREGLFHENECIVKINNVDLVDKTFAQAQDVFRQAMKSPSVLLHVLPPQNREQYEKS

[18] = biological target: DLG5_1, Q8TDM6
[19] = biological target: GOPC, Q9HD26
[20] = biological target: GRID2IP_1, A4D2P6
[21] = biological target: T8, APBA2_1, Q99767
T8 sequence (Q99767 563-664, limits assumed, looked up): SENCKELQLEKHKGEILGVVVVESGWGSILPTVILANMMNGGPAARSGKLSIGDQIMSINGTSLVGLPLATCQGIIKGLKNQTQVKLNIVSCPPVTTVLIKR

[22] = biological target: Inadl_9, Q8NI35
[23] = biological target: MAGI3_2, Q5TCQ9
[24] = biological target: T9, MPDZ_5, O75970
T9 sequence (O75970 695-796, limits assumed, looked up): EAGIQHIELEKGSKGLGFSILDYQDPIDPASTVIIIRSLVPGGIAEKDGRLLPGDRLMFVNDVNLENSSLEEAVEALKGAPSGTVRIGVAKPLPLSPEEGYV

[25] = biological target: SCRIB_1, Q14160
[26] = biological target: T10, MPDZ_12, O75970
T10 sequence (O75970 1857-1958, limits assumed, looked up): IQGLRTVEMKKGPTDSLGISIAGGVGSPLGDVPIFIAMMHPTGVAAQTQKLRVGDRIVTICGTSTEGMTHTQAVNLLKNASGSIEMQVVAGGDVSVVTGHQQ

[27] = plain residues with an end cap or a label only (N-terminal biotin on a linker: ado-ado)
[28] = plain residues with an end cap or a label only (N-terminal biotin on a linker: ttds)
[29] = plain residues with an end cap or a label only (N-terminal biotin on a linker: ahx)

GRID2IP_1, A4D2P6, sequence (A4D2P6 1-87): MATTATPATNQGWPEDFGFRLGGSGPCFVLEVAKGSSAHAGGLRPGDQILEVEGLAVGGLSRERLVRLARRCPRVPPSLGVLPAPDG
AHNAK1, Q09666, sequence (Q09666 4-100): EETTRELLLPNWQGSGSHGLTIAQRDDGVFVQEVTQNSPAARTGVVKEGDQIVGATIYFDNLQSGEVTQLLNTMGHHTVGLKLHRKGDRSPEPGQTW
LAP2, Q96RT1, sequence (Q96RT1 other isoform, or with tags, fused parts or gaps): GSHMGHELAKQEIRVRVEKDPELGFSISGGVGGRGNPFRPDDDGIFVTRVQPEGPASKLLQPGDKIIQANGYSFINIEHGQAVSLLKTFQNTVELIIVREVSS
DLG1_3, Q12959, sequence (Q12959 457-571): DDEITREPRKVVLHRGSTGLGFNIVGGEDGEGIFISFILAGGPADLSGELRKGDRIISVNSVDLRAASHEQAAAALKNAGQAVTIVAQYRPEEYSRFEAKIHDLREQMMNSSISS
GRASP, Q7Z6J2, sequence (Q7Z6J2 96-193): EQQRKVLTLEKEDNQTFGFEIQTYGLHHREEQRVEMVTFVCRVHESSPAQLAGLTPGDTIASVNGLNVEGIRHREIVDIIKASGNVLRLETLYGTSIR
NHERF4_2, Q86UT5, sequence (Q86UT5 220-308): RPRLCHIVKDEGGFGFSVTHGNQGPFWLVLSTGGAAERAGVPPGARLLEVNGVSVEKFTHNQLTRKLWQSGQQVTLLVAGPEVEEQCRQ
DLG5_1, Q8TDM6, sequence (Q8TDM6 617-713): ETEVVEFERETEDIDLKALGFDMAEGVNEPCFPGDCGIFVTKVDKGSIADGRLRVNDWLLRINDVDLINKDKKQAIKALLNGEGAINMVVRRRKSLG
MAGI2_4, Q86UL8, sequence (Q86UL8 772-865): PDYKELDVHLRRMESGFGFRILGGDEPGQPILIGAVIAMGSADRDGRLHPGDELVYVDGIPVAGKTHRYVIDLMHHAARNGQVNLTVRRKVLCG
SCRIB_1, Q14160, sequence (Q14160 718-814): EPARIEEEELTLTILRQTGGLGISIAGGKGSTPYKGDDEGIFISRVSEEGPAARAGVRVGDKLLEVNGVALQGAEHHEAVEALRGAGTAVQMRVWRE
Inadl_9, Q8NI35, sequence (Q8NI35 1530-1615): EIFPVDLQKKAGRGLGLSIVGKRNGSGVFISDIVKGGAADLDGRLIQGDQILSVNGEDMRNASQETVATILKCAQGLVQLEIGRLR
FRMPD2_2, Q68DX3, sequence (Q68DX3 944-1038): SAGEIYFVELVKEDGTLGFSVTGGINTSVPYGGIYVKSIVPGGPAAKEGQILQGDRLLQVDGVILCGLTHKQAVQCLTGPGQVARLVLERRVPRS
NHERF4_1, Q86UT5-2, sequence (Q86UT5 other isoform, or with tags, fused parts or gaps): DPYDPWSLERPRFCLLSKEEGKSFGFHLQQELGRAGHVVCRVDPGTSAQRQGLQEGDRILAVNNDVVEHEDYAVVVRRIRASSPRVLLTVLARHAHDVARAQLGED
MAGI3_2, Q5TCQ9, sequence (Q5TCQ9 398-503): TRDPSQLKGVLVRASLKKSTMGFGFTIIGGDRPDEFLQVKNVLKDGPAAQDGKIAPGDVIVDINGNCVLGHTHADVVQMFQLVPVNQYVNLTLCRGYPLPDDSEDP
LNX1_1, Q8TBB1, sequence (Q8TBB1 261-371): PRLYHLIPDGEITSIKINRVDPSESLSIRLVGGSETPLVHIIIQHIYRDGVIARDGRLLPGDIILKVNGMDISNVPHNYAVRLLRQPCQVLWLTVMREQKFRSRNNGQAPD
IL16_1, Q14005, sequence (Q14005 210-306): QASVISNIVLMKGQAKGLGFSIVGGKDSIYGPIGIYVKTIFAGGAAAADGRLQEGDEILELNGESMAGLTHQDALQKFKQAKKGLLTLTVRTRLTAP

Binder: SVVSERISSV [HTR2C, P28335]
- pKd [1, 27]: below the threshold
- pKd [2, 27]: below the threshold
- pKd [3, 27]: 4.56
- pKd [4, 27]: below the threshold
- pKd [5, 27]: below the threshold
- pKd [6, 27]: 4.29
- pKd [7, 27]: below the threshold
- pKd [8, 27]: 4.25
- pKd [9, 27]: below the threshold
- pKd [10, 27]: below the threshold
- pKd [11, 27]: 3.74
- pKd [12, 27]: 3.72
- pKd [13, 27]: 4.55
- pKd [14, 27]: below the threshold
- pKd [15, 27]: below the threshold
- pKd [16, 27]: below the threshold
- pKd [17, 27]: below the threshold
- pKd [18, 27]: below the threshold
- pKd [19, 27]: below the threshold
- pKd [20, 27]: below the threshold
- pKd [21, 27]: below the threshold
- pKd [22, 27]: below the threshold
- pKd [23, 27]: 4.46
- pKd [24, 27]: below the threshold
- pKd [25, 27]: below the threshold
- pKd [26, 27]: below the threshold

Binder: IQREDQETAV [DGKZ, Q13574]
- pKd [1, 28]: below the threshold
- pKd [2, 28]: below the threshold
- pKd [3, 28]: 4.38
- pKd [4, 28]: below the threshold
- pKd [5, 28]: below the threshold
- pKd [6, 28]: below the threshold
- pKd [7, 28]: 4.12
- pKd [8, 28]: 4.93
- pKd [9, 28]: below the threshold
- pKd [10, 28]: below the threshold
- pKd [11, 28]: below the threshold
- pKd [12, 28]: below the threshold
- pKd [13, 28]: 3.67
- pKd [14, 28]: 4.54
- pKd [15, 28]: below the threshold
- pKd [16, 28]: 4.3
- pKd [17, 28]: below the threshold
- pKd [18, 28]: below the threshold
- pKd [19, 28]: 3.86
- pKd [20, 28]: below the threshold
- pKd [21, 28]: below the threshold
- pKd [22, 28]: below the threshold
- pKd [23, 28]: 4.85
- pKd [24, 28]: below the threshold
- pKd [25, 28]: 4.71
- pKd [26, 28]: below the threshold

Binder: EKLSSIESDV [GRIN2B, Q13224]
- pKd [1, 29]: 3.61
- pKd [2, 29]: 3.71
- pKd [3, 29]: 4.02
- pKd [4, 29]: below the threshold
- pKd [5, 29]: below the threshold
- pKd [6, 29]: 3.84
- pKd [7, 29]: below the threshold
- pKd [8, 29]: 3.91
- pKd [9, 29]: below the threshold
- pKd [10, 29]: 4.13
- pKd [11, 29]: below the threshold
- pKd [12, 29]: 3.53
- pKd [13, 29]: below the threshold
- pKd [14, 29]: 4.26
- pKd [15, 29]: below the threshold
- pKd [16, 29]: below the threshold
- pKd [17, 29]: below the threshold
- pKd [18, 29]: below the threshold
- pKd [19, 29]: 3.63
- pKd [20, 29]: below the threshold
- pKd [21, 29]: 3.53
- pKd [22, 29]: below the threshold
- pKd [23, 29]: 3.54
- pKd [24, 29]: below the threshold
- pKd [25, 29]: 3.71
- pKd [26, 29]: below the threshold
